The results in this text go back to PMC8807537 (Acta Naturae, 2021).

This assay deals with T1, recombinant protein GP Zaire ebolavirus (H. sapiens-wt/GIN/2014/Kissidougou-C15 strain) (Zaire ebolavirus, …, UniProt X5HMX4, strain).
T1 construct: also called EBOV GP; recombinant EBOV GP
The assay is described as follows: ELISA; indirect ELISA; […] (1 ug/ml) […]. As to conditions: both partners purified. (In an ELISA, binding on a coated surface is turned into a signal by an enzyme label.)

B1: control antibody MAb114 (antibody, V domains shown)
VH: EVQLVESGGGLIQPGGSLRLSCAASGFALRMYDMHWVRQTIDKRLEWVSAVGPSGDTYYADSVKGRFAVSRENAKNSLSLQMNSLTAGDTAIYYCVRSDRGVAGLFDSWGQGILVTVSS
VL: DIQMTQSPSSLSASVGDRITITCRASQAFDNYVAWYQQRPGKVPKLLISAASALHAGVPSRFSGSGSGTHFTLTISSLQPEDVATYYCQNYNSAPLTFGGGTKVEIK
On to B1, for which the binding result is recorded as “binds”.
